The text below walks through data of the supplement of paper PMC9170038.

The test system of the data set is MS2 coat protein. Briefly: apparent KD of MS2 coat protein; designed switch direction (-1 OFF switch, 1 ON switch): -1; higher = weaker reporter binding. The method in brief: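 Designed RNA switches with common flanks were transcribed on Illumina chips by stalled E. coli RNA polymerase and titrated with SNAP-549-labelled MS2 coat protein, from 0.7 or 1.5 nM doubling to 3 µM, in Tris-HCl pH 7.5 buffer with KCl, MgCl2, BSA, DTT, tRNA and Tween-20. Steps lasted 0.8–1.5 h (lowest) to 10–20 min (highest). Titrations ran without input, with 200 uM small-molecule ligand, or with an oligonucleotide input. Normalised cluster fluorescence was curve-fitted, and apparent KD is the per-design median over clusters.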

[1] abbreviates: Eterna round: R95, input ligand: FMN 200 uM.
[2] abbreviates: Eterna round: R95, input ligand: microRNA oligo, concentration not stated.
The mark [3] stands for this setting: Eterna round: R95, input ligand: none.
[4] abbreviates: input ligand: microRNA oligo, concentration not stated.

As for “CCUGUGUAAGGAUAUGCCUGGCCGUGAGGCCAGAUUGAAUAGCAGAAGGUACAUGAGGAUCACCCAUGUACGGG [jl-ex4-4.61 ViennaUCT mod] (Eterna round: R97, puzzle: Exclusion 4)”, the “apparent KD of MS2 coat protein” value is 0.206 µM (input ligand: FMN 200 uM) and 0.0329 µM (input ligand: none).
For the sequence “CACAAGCUUGGGCUCGCUGACAUGAGGAUCACCCAUGUCGGAUCAGACACCAAACGUCUCGAUCACGACGGAUCCAG [Eternabot (Original) Solution 7] (Eterna round: R97, puzzle: Sensor, turn-off variant 1)”, the “apparent KD of MS2 coat protein” value reads like this: (input ligand: FMN 200 uM) 0.04 µM; (input ligand: none) 0.0333 µM.
Turning to “AAGAAACAUGAGGAUCACCCAUGUGAGGAUAUGAAAAAGAAAAUAAAAUAAAGAAGAAUCAGAAGGCACAAAGG [Mat - Mod of Hog D4] (puzzle: Exclusion 1)”, the “apparent KD of MS2 coat protein” value worked out at 0.034 µM under setting [1], 0.0249 µM under setting [2] and 0.0281 µM under setting [3].
“AAAUAGCGAGGAUAUACUGGAAUAGAAAAUAUUCGCAUGGCACAUGAGGAUCACCCAUGUAGAAGGCGCAGUAA (Eterna round: R97, puzzle: Exclusion 2)”: the “apparent KD of MS2 coat protein” value runs as follows: (input ligand: FMN 200 uM) 0.0855 µM; (input ligand: none) 0.0255 µM.
Regarding “AAAUACAAGCAAAGAUUCUACAUGAGGAUCACCCAUGUGCUCGUCUUAUAAAGUACUAUCACGAAAGUGAUAGUACA [Sensor 3, v1 - 33] (puzzle: Sensor v3, turn-off variant 1)”, the “apparent KD of MS2 coat protein” value under setting [1] was 0.0213 µM, the “apparent KD of MS2 coat protein” value under setting [2] came to 0.161 µM and the “apparent KD of MS2 coat protein” value under setting [3] is 0.0232 µM.
Turning to “GCUUCGUCUGUGGGUGGUGACAUGAGGAUCACCCAUGUUUUGCUCGUCUUGUGCCGGGCCCGGCGCCCGGGCCCGGC [-38.7, -63.8, A 8%] (Eterna round: R97, puzzle: Sensor, turn-off variant 1)”, the “apparent KD of MS2 coat protein” value reads like this: (input ligand: FMN 200 uM) 0.721 µM; (input ligand: none) 0.955 µM.
Take “UUAAAUCAUGUAGGAUAUGCGUGGCGAAGCUAUGCAGAAGGACAUGAGGAUCACCCAUGUGCUUCCGUCUGCGUACAGAUGGAA [JL Eng1 1.08 mod 3] (Eterna round: R96, puzzle: Exclusion NG 1)”: the “apparent KD of MS2 coat protein” value by setting is: (input ligand: FMN 200 uM) 0.0814 µM; under setting [4], 0.0806 µM; (input ligand: none) 0.109 µM.
As to “AGGGAUAAAGGAUAUACAUGAGGAUCACCCAUGUUGAGGAAAGUGAGAUGAGGAGGAAGUAGAAGGUUAGGCGG [JR_Exclu3_Sub084] (puzzle: Exclusion 3)”, the “apparent KD of MS2 coat protein” value under setting [1] came out at 0.0357 µM, the “apparent KD of MS2 coat protein” value under setting [2] is 0.0339 µM and the “apparent KD of MS2 coat protein” value under setting [3] was 0.0314 µM.
As to “UUUUGGCAUGUAGGAUAUGGGUCCGAUUAGGAUUUAGAAGGACAUGAGGAUCACCCAUGUGCAUUUAAUUGGUCAUUACCUUUU [EXclNG1-LROPPY11] (Eterna round: R96, puzzle: Exclusion NG 1)”, under setting [4], the “apparent KD of MS2 coat protein” value was found to be 0.0655 µM.
As for “UGAUGUAGAGGAUAUUGUAUGGCUCACAUGAGGAUCACCCAUGUAGGAUCACCUAGAGCCCGAGAAGGCUAGAGGU [Eternabot (L2) Solution 4] (Eterna round: R97, puzzle: Exclusion 5)”, the “apparent KD of MS2 coat protein” value (input ligand: FMN 200 uM) came out at 0.047 µM and the “apparent KD of MS2 coat protein” value (input ligand: none) is 0.0458 µM.
The corresponding values for “UAUUUUAAAGUAAGGAUAUCGGUCCGAAAGGACUACGAGAAGGUACAUGAGGAUCACCCAUGUGAAAUAAGAAU [Mod of Zala 23 - Jieux - Brourd's Mod of Exclusion 4] (Eterna round: R97, puzzle: Brourd's mod of Exclusion 4)” are 0.0208 µM and 0.015 µM.
As to “ACGUGGGCCCUUAGUGAACAUGAGGAUCACCCAUGUAACCACAAGGAUAUCUACGCCAGCACGCGAGAGAAGGUGUGAAAUAAU [Maorbetiza] (Eterna round: R96, puzzle: Exclusion NG 3)”, the “apparent KD of MS2 coat protein” value is, setting by setting: (input ligand: FMN 200 uM) 0.132 µM; under setting [4], 0.0354 µM; (input ligand: none) 0.0448 µM.
With “CGGAUGUUAGGAUAUUAGUAGUAGUCAGAAAAGACUAUUACUGAGAAGGAACAUGAGGAUCACCCAUGUAUCCG [Mat - Exclusion 4 - Eli Mod - D45] (Eterna round: R97, puzzle: Exclusion 4)”, the “apparent KD of MS2 coat protein” value by setting is: (input ligand: FMN 200 uM) 0.0331 µM; (input ligand: none) 0.0151 µM.
In the case of “CCCUCACAUGAGGAUCACCCAUGUCAGGAUAUCUCAGUACGUCCACACGGACGCACCAAGAGAAGGGACAAAGC [Veara] (Eterna round: R97, puzzle: Exclusion 1)”, the “apparent KD of MS2 coat protein” value (input ligand: FMN 200 uM) came out at 0.0322 µM and the “apparent KD of MS2 coat protein” value (input ligand: none) turned out to be 0.02 µM.
The corresponding values for “UUAUGAGAGCAGGAUAUCUUAUUUUUUUUUUGUGGAGAAGGGCUCACAUGAGGAUCACCCAUGUGGUCCUAGAU [LRO-Excl6-25-mod of 4.86 by jal] (Eterna round: R97, puzzle: Exclusion 6)” are 0.0474 µM and 0.0329 µM.
For the sequence “AAUUAUUUUUGAGGAUAUUGUGGUGAAACACCACAAGAAGGCAAGAUACACAUGAGGAUCACCCAUGUGAGCCUGAUGCUUAUG [Ex NG1 #53] (Eterna round: R96, puzzle: Exclusion NG 1)”, the “apparent KD of MS2 coat protein” value under setting [4] was determined as 0.0131 µM.
On to “AAAGCGCGGUGAUAAUCUGUAACAUGAGGAUCACCCAUGUAGCAGGAUAUGGGCACAGUGGAAACUCAGAAGGGCUAUAAGCGC [Eternabot solution 21] (Eterna round: R96, puzzle: Exclusion NG 3)”, for which the “apparent KD of MS2 coat protein” value by setting is: (input ligand: FMN 200 uM) 0.171 µM; under setting [4], 0.369 µM; (input ligand: none) 0.288 µM.
Take “GUGAGUAGUCAGGAUAUGCUGUACAAAAGUACAGCAGAAGGGACUACAUGAGGAUCACCCAUGUUUACUUCAUG [Omei Ex6 B5] (Eterna round: R97, puzzle: Exclusion 6)”: the “apparent KD of MS2 coat protein” value reads like this: (input ligand: FMN 200 uM) 0.522 µM; (input ligand: none) 0.609 µM.
With “UAUGUUUUAGGAUAUUGUACUGCUGACAUGAGGAUCACCCAUGUAUGCUAACUCGGCCGUCGAGAAGGAGAAUAUG [BotMod 30 - Jieux - Exclusion 5] (Eterna round: R97, puzzle: Exclusion 5)”, the “apparent KD of MS2 coat protein” value (input ligand: FMN 200 uM) came out at 0.0436 µM and the “apparent KD of MS2 coat protein” value (input ligand: none) is 0.0638 µM.
In the case of “AGUACUAACACGAAAGUGUUAGUACAAUAAGCUUGUGAAACAUGAGGAUCACCCAUGUCCUCAUAAGCUCGUCUUAU [Mat - Sensor v2 -ver2- JL mod - D68] (Eterna round: R96, puzzle: Sensor v2, turn-off variant 2)”, the “apparent KD of MS2 coat protein” value stood at 0.0154 µM (input ligand: FMN 200 uM), 0.468 µM under setting [4] and 0.0176 µM (input ligand: none).
In the case of “UUAAAUCAUGUAGGAUAUGCGUGGAGAAGCUAUGCAGAAGGACAUGAGGAUCACCCAUGUGCUUCCGUCUGCGUACAGAUGGUA [Mat - Exclusion NG 1 - Mod of JL - D7] (Eterna round: R96, puzzle: Exclusion NG 1)”, the “apparent KD of MS2 coat protein” value is 0.0845 µM (input ligand: FMN 200 uM), 0.0171 µM under setting [4] and 0.0195 µM (input ligand: none).
On to “CAUGUGUAAGGAUAUGACAAUGGUAUCGAAAGAUACCAUUGUCAGAAGGUACAUGAGGAUCACCCAUGUGGAUC [Ex4-3: 18] (puzzle: Exclusion 4)”, for which, under setting [2], the “apparent KD of MS2 coat protein” value came out at 0.199 µM.
Regarding “AAGCACGCGUAGGAUAUAAUCCAAACCUCGAGGUUAGAAGGACGCACAUGAGGAUCACCCAUGUUCCUAGCAUC [Eternabot (Original) Solution 19] (Eterna round: R97, puzzle: Exclusion 6)”, the “apparent KD of MS2 coat protein” value is, setting by setting: (input ligand: FMN 200 uM) 0.0207 µM; (input ligand: none) 0.0171 µM.
In the same order, the values of “UGCGAGUAAGGAUAUUCGCGACCGCCCACAAGGGCAGUCGAGAAGAAGGUACUUGAGGAUCACCCAAGUCCUAA [Quondius] (Eterna round: R97, puzzle: Exclusion 4)” are 0.0898 µM and 0.0208 µM.
Consider “CUGCUCCGUGUAGGAUAUCCGCGCAACCAAUGCGGAGAAGGACAUGAGGAUCACCCAUGUAUGUUAUUAUCACGUGAAGCGUCC [Design 26] (Eterna round: R96, puzzle: Exclusion NG 1)”, for which the “apparent KD of MS2 coat protein” value was 0.0248 µM (input ligand: FMN 200 uM), 0.0137 µM under setting [4] and 0.0248 µM (input ligand: none).
In the case of “ACAUGAGGAUCACCCAUGUGACCACAAUGGCUGAUGUAACAACAGGAUAUGUGUGAAUAUCUAACACAGAAGGGUUUUGACUGG [Deportation 58 - Jieux - Exclusion NG 3] (Eterna round: R96, puzzle: Exclusion NG 3)”, the “apparent KD of MS2 coat protein” value was 0.0769 µM (input ligand: FMN 200 uM), 0.0593 µM under setting [4] and 0.0759 µM (input ligand: none).
With “AUCAUGUCAGGAUAUCUGAUAUGGAUCUUCGGAUCAAGUUCAGAGAAGGGACAUGAGGAUCACCCAUGUCGAAC [Ex4-3: 31] (puzzle: Exclusion 4)”, the “apparent KD of MS2 coat protein” value under setting [2] stood at 0.0256 µM.
With “UAAAAGUGAGGAUAUCCAAUAUAUGACAUGAGGAUCACCCAUGUUUCCACUCGUACCUCCGGAGAAGGCACAAAAU [Ex5 #60] (Eterna round: R97, puzzle: Exclusion 5)”, the “apparent KD of MS2 coat protein” value worked out at 0.0252 µM (input ligand: FMN 200 uM) and 0.0286 µM (input ligand: none).
“CUAGGGCACAUUUAAACGCCCUAACAUGAGGAUCACCCAUGUCAGGAUAUGUAGGCAAAGACCCUACAGAAGGGACAUGUCCUA [Recebe] (Eterna round: R96, puzzle: Exclusion NG 3)”: the “apparent KD of MS2 coat protein” value (input ligand: FMN 200 uM) was 0.303 µM, the “apparent KD of MS2 coat protein” value under setting [4] is 0.0429 µM and the “apparent KD of MS2 coat protein” value (input ligand: none) was found to be 0.0529 µM.
As for “CUAUGUUAGCAGGAUAUGCCAUUAUUCCUUUACGCAGAAGGGCUUACAUGAGGAUCACCCAUGUUACAUUUCAU [JR_E6_Sub084] (puzzle: Exclusion 6)”, under setting [2], the “apparent KD of MS2 coat protein” value worked out at 0.0157 µM.
